Consider 2 substances from paper doi:10.1101/2023.02.09.527830.

“And” between values parts separate entries of the source, which are not always exact repeats. Equal entries are not always repeated.

For assay [1], the target named is Lassa virus nucleoprotein (NP), AV strain (Lassa virus (AV strain)). Put plainly: native MS.
Assay [2] has as its target Lassa virus Z protein, AV strain (Lassa virus (AV strain)). The assay can be described thus: native MS.
The target in assay [3] is Lassa virus nucleoprotein (NP), AV strain (Lassa virus (AV strain)). The assay can be described thus: negative-stain electron microscopy.
Assay [4] has the same target. Put plainly: native MS. The source holds these as a separate data set.
Assay [5] has the same target. The assay can be described thus: SEC.

In assay [1], “Lassa virus Z protein, AV strain (natural protein)” registered a Kd of 30 µM and a stoichiometry N of under 3. The same substance returned a stoichiometry N in assay [2] of under 6.

For the substance “Lassa virus nucleoprotein (NP), AV strain (natural protein)”, the stoichiometry N was 3 in assay [3]; 4 and 5 and 6 in assay [4]; 2 and 3 in assay [1]; 3 in assay [5].

What is called Kd is the free concentration of one partner at which half of the binding sites on the other are occupied at equilibrium, for simple one-to-one binding. A higher Kd goes with a looser complex. The term stoichiometry N denotes the number of molecules, sites or subunits per partner or assembly.
